T1: human claudin 18A1 (CLD18A1) (human, UniProt P56856 1-261)
T1 construct: also called CLD18.1; claudin 18 splice variant 1
T1 sequence: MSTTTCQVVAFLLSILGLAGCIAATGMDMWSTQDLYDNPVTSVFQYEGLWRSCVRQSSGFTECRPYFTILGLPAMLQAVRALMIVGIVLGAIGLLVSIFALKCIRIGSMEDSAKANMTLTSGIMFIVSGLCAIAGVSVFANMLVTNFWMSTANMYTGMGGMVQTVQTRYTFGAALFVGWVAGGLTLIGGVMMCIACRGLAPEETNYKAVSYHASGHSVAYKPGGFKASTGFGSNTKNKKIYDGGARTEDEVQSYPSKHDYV


Columns and labels:
[1] = target: T2, human claudin 18A2 (CLD18A2) (human); test: flow cytometry, scFv_Fc on HEK293 cells stably transfected with human CLD18A2
T2 construct: also called CLD18.2; CLDN18A2
Description: Binding of anti-Claudin 18A2 scFv_Fc fusion antibody to HEK293 cells stably transfected with CLD18A2 was determined by flow cytometry. Experimental data was analyzed using GraphPad Prism and Guava easyCyte™ HT System instrument as described in Example 1 to obtain EC50 value.

[2] = target: T2, human claudin 18A2 (CLD18A2); test: cell-based or functional assay
[3] = target: T1, human claudin 18A1 (CLD18A1); test: flow cytometry, hybridoma supernatant on HEK293 cells stably transfected with human CLD18A1
Source text: (§1) Individual cells were screened for anti-CLD18A2 monoclonal antibody by flow cytometry, and HEK293 cells (HEK-CLD18A2) stably expressing human CLD18A2 were used for primary screening by flow cytometry using a Guava easyCyte™ HT System instrument. The binding of the antibody to human CLD18A1 and CLD18A2 transformants was then compared by flow cytometry. The instrument used was the Guava easyCyte™ HT System.
(§2) After multiple rounds of preparation and screening of hybridomas, the inventors found several antibodies with relatively ideal binding properties.

[4] = target: T2, human claudin 18A2 (CLD18A2); test: flow cytometry, hybridoma supernatant on HEK293-CLD18A2 against HEK293-CLD18A1
Source text: as §1, §2

Binder	EC50 [1]	binding result [3]	fold difference of average fluorescence intensity, CLD18A2 against CLD18A1 cells [4]	other results
hu2B1-S54A scFv fused to human IgG1 Fc portion (Fc fusion, also called humanized hu2B1-S54A; not shown: human IgG1 Fc portion) scFv: QVQLVQSGAEVKKPGASVKVSCKASGYTFTSYTMHWVRQAPGQGLEWMGYINPASGYTNYNQKFKDRVTMTRDTSTSTAYMELSSLRSEDTAVYYCARIYYGNSFAYWGQGTLVTVSSGGGGSGGGGSGGGGSDIVMTQSPDSLAVSLGERATINCKSSQSLLNSGNQKNYLTWYQQKPGQPPKLLIYWASTRESGVPDRFSGSGSGTDFTLTISSLQAEDVAVYYCQNDYSYPLTFGGGTKVEIKR	18.6 nM			
humanized antibody hu2B1-S54A (full antibody) (antibody, human IgG1, kappa, V domains shown) VH: QVQLVQSGAEVKKPGASVKVSCKASGYTFTSYTMHWVRQAPGQGLEWMGYINPASGYTNYNQKFKDRVTMTRDTSTSTAYMELSSLRSEDTAVYYCARIYYGNSFAYWGQGTLVTVSS VL: DIVMTQSPDSLAVSLGERATINCKSSQSLLNSGNQKNYLTWYQQKPGQPPKLLIYWASTRESGVPDRFSGSGSGTDFTLTISSLQAEDVAVYYCQNDYSYPLTFGGGTKVEIKR				ADCC effect (LDH release), antibody 20 µg/ml, effector-to-target ratio 50:1 [2]: 62.8%
humanized antibody hu8E5-2I (full antibody) (antibody, human IgG1, kappa, V domains shown) VH: QVQLQESGPGLIKPSQTLSLTCTVSGGSISSGYNWHWIRQPPGKGLEWIGYIHYTGSTNYNPALRSRVTISVDTSKNQFSLKLSSVTAADTAIYYCARIYNGNSFPYWGQGTTVTVSS VL: DIVMTQSPDSLAVSLGERATINCKSSQSLFNSGNQKNYLTWYQQKPGQPPKLLIYWASTRESGVPDRFSGSGSGTDFTLTISSLQAEDVAVYYCQNAYSFPYTFGGGTKLEIKR				ADCC effect (LDH release), antibody 20 µg/ml, effector-to-target ratio 50:1 [2]: 72.9%
2B1 scFv_Fc fusion antibody (scFv of 2B1 fused to human IgG1 Fc portion) (Fc fusion, also called murine anti-2B1 ScFv; not shown: human IgG1 Fc portion) scFv: QVQLQQSGAELARPGASVKMSCKASGYTFTSYTMHWVKQRPGQGLEWIGYINPSSGYTNYNQKFKDKATLTADKSSSTAYMQLSSLTSEDSAVYYCARIYYGNSFAYWGQGTTVTVSSGGGGSGGGGSGGGGSDIVMTQSPSSLTVTAGEKVTMSCKSSQSLLNSGNQKNYLTWYQQKPGQPPKLLIYWASTRESGVPDRFTGSGSGTDFTLTISSVQAEDLAVYYCQNDYSYPLTFGAGTKLELKR	3.56 nM			
2B1-N52D scFv_Fc fusion antibody (Fc fusion, not shown: human IgG1 Fc portion) scFv: QVQLQQSGAELARPGASVKMSCKASGYTFTSYTMHWVKQRPGQGLEWIGYIDPSSGYTNYNQKFKDKATLTADKSSSTAYMQLSSLTSEDSAVYYCARIYYGNSFAYWGQGTTVTVSSGGGGSGGGGSGGGGSDIVMTQSPSSLTVTAGEKVTMSCKSSQSLLNSGNQKNYLTWYQQKPGQPPKLLIYWASTRESGVPDRFTGSGSGTDFTLTISSVQAEDLAVYYCQNDYSYPLTFGAGTKLELKR	6.11 nM			
2B1-S54A scFv_Fc fusion antibody (Fc fusion, not shown: human IgG1 Fc portion) scFv: QVQLQQSGAELARPGASVKMSCKASGYTFTSYTMHWVKQRPGQGLEWIGYINPASGYTNYNQKFKDKATLTADKSSSTAYMQLSSLTSEDSAVYYCARIYYGNSFAYWGQGTTVTVSSGGGGSGGGGSGGGGSDIVMTQSPSSLTVTAGEKVTMSCKSSQSLLNSGNQKNYLTWYQQKPGQPPKLLIYWASTRESGVPDRFTGSGSGTDFTLTISSVQAEDLAVYYCQNDYSYPLTFGAGTKLELKR	3.85 nM			
murine monoclonal antibody 3E12 (hybridoma supernatant) (antibody, V domains shown, Mouse hybridoma antibody tested as supernatant) VH: QVQLQQSGPELVKPGALVKISCKASGYTFTSYDINWVKQRPGQGLEWIGWIYPGDGSTKYNEKFKGKATLTADKSSSTAYMQLSSLTSENSAVYFCARGGYRYDEAMDYWGQGTTVTVSS VL: QIVLTQSPAIMSASPGEKVTMTCSASSSISYMHWYQQKPGTSPKRWIYDTSKLASGVPARFSGSGSGTSYSLTISSMEAEDAATYYCHQRSSYPYTFGGGTKLEIKR		no binding	> 5 times	
murine monoclonal antibody 8E5 (hybridoma supernatant) (antibody, V domains shown, Mouse hybridoma antibody tested as supernatant) VH: DVQLQESGPDLVKPSQSLSLTCTVTGYSITSGYNWHWIRQFPGNKMEWMGYIHYTGSTNYNPSLRSRISITRDTSKNQFFLQLNSVTTDDTATYYCTRIYNGNSFPYWGQGTSVTVSS VL: DIVMTQSPSSLTVTPGEKVTMTCKSSQSLFNSGNQKNYLTWYQQRPGQPPKMLIYWASTRESGVPDRFTGSGSGTDFTLTISSVQAEDLAVFYCQNAYSFPYTFGGGTKLEIKR		no binding	> 5 times	
murine monoclonal antibody 2B1 (hybridoma supernatant) (antibody, V domains shown, Mouse hybridoma antibody tested as supernatant) VH: QVQLQQSGAELARPGASVKMSCKASGYTFTSYTMHWVKQRPGQGLEWIGYINPSSGYTNYNQKFKDKATLTADKSSSTAYMQLSSLTSEDSAVYYCARIYYGNSFAYWGQGTTVTVSS VL: DIVMTQSPSSLTVTAGEKVTMSCKSSQSLLNSGNQKNYLTWYQQKPGQPPKLLIYWASTRESGVPDRFTGSGSGTDFTLTISSVQAEDLAVYYCQNDYSYPLTFGAGTKLELKR		no binding	> 5 times	
murine monoclonal antibody 4A11 (hybridoma supernatant) (antibody, V domains shown, Mouse hybridoma antibody tested as supernatant; the latter is used) VH: QIQLVQSGPELKKPGETVKISCKASGYTFTNYGMNWVKQAPGKGLKWMGWINTNTGEPTYAEEFKGRFAFSLETSASTAYLQINNLKNEDTATYFCARFSYGNSFAYWGQGTTVTVSS VL: DIVMTQSPSSLSVSAGEKVTMSCKSSQSLLNSGNQKNYLAWYQQKPGQPPKLLIYGASTRESGVPDRFTGSGSGTDFTLTISSVQAEDLAVYYCQNDHSYPLTFGAGTKLELKR		no binding	> 5 times	
hu8E5 scFv fused to human IgG1 Fc portion (Fc fusion, also called hu8E5-S62A; not shown: human IgG1 Fc portion) scFv: QVQLQESGPGLVKPSQTLSLTCTVSGGSISSGYNWHWIRQPPGKGLEWIGYIHYTGSTNYNPALRSRVTISVDTSKNQFSLKLSSVTAADTAVYYCARIYNGNSFPYWGQGTTVTVSSGGGGSGGGGSGGGGSDIVMTQSPDSLAVSLGERATINCKSSQSLFNSGNQKNYLTWYQQKPGQPPKLLIYWASTRESGVPDRFSGSGSGTDFTLTISSLQAEDVAVYYCQNAYSFPYTFGGGTKLEIKR	107 nM			
hu8E5-2I scFv fused to human IgG1 Fc portion (Fc fusion, also called mutant hu8E5-2I; not shown: human IgG1 Fc portion) scFv: QVQLQESGPGLIKPSQTLSLTCTVSGGSISSGYNWHWIRQPPGKGLEWIGYIHYTGSTNYNPALRSRVTISVDTSKNQFSLKLSSVTAADTAIYYCARIYNGNSFPYWGQGTTVTVSSGGGGSGGGGSGGGGSDIVMTQSPDSLAVSLGERATINCKSSQSLFNSGNQKNYLTWYQQKPGQPPKLLIYWASTRESGVPDRFSGSGSGTDFTLTISSLQAEDVAVYYCQNAYSFPYTFGGGTKLEIKR	9.22 nM			fold increase of affinity against the parent antibody 8E5 [1]: 5 fold
8E5 scFv_Fc fusion antibody (scFv of 8E5 fused to human IgG1 Fc portion) (Fc fusion, also called parent antibody 8E5; not shown: human IgG1 Fc portion) scFv: DVQLQESGPDLVKPSQSLSLTCTVTGYSITSGYNWHWIRQFPGNKMEWMGYIHYTGSTNYNPSLRSRISITRDTSKNQFFLQLNSVTTDDTATYYCTRIYNGNSFPYWGQGTSVTVSSGGGGSGGGGSGGGGSDIVMTQSPSSLTVTPGEKVTMTCKSSQSLFNSGNQKNYLTWYQQRPGQPPKMLIYWASTRESGVPDRFTGSGSGTDFTLTISSVQAEDLAVFYCQNAYSFPYTFGGGTKLEIKR	49.2 nM			

— patent US11111295 (CAFA THERAPEUTICS, dated 2021)
